In patent US20160319265:

Test system: TEV substrate

Substance: AcTEV protease
- TEV Substrate Cleavage (%), 30 minute: 73.9%
- TEV Substrate Cleavage (%), 60 minute: 91.6%
- TEV Substrate Cleavage (%), 120 minute: 97.2%
